Assay results as given in article PMC10755736 (2023).
Non-standard residues stand in square brackets, D forms with d. No end group written: not given here. pY = N[C@@H](Cc1ccc(OP(=O)(O)O)cc1)C(=O)O

Target: Nck adaptor protein (Nck1), recombinant (UniProt P16333 1-377)
Experiment: MST

Binder: EEHI[pY]DEVAAD [peptide Y474 (pY-containing Tir peptide)]
- Kd: 76.4 nM
